The Kd is the free concentration of one partner at which half of the binding sites on the other are occupied at equilibrium, for simple one-to-one binding. Low readings indicate tighter binding, high ones weaker binding.

The values below come from US20170066817A1.

Assay [1] concerns the target GST-PrPc (β1α1) protein (human). Put plainly: Biacore (SPR), soluble GST-PrPc (β1α1) at several concentrations.
In assay [2] the target is human cellular prion protein (human). Put plainly: cell-based or functional assay.
Assay [3] has as its target GST-PrPc (β1α1) protein (human). As to the kind of experiment: Biacore (SPR), ratio of affinities. (In general: In SPR one partner is held on a chip, and binding of the other changes the refractive index at the surface.)

B1: anti-PrPc mAb-5 (monoclonal antibody Ab-5) (antibody, V domains shown)
VH: EVQLQQSGPELVKPGASVKMSCKASGYTFTDYYMKWVKQSHGKSLEWIGDINPNNGDTFYNQKFKGKATLTVDKSSNTAYMQLNSLTSEDSAVYYCAKPGRTYWGQGTLVTVSAAKTTAPSVYPLAPVCGGSRP
VL: DIVLTQSPASLAVSLGQRATISYRASKSVSTSGYSYMHWNQQKPGQPPRLLIYLVSNLESGVPARFSGSGSGTDFTLNIHPVEEEDAATYYCQHIRELTRSEGGPSWK
The molecule B1 displayed a Kd in assay [1] of 3.05 nM. In addition, in assay [2], the Migrated cell number, HCT116 cells (transwell, antibody 10 µg/mL, 24 h) was 192 cells; the Migrated cell number, MDA-MB-231 cells (transwell, antibody 10 µg/mL, 24 h) worked out at 695 cells; the Migrated cell number, SW480 cells (transwell, antibody 10 µg/mL, 24 h) came to 111 cells. Besides, in assay [3], the fold affinity against 12F10 was 5.38 times and the fold affinity against Ab-3 was 1.87 times.
